“Also recorded” adds a separate entry of the source. Square brackets hold non-standard residues; d marks the D form. Ends that are not written are not given here. fluorescein = N-terminal fluorescein label; pS = N[C@@H](COP(=O)(O)O)C(=O)O
Legend:
[1] = test system: all seven human 14-3-3 isoforms; assay: Fluorescence polarization (FP) direct binding assay, statements over all isoforms; conditions: FP direct binding; all seven isoforms; fluorescein-labeled peptide 1 nM; FP buffer pH 7
Method: (§1) Human MBP-tagged 14-3-3 isoforms were expressed from pMAL2CX plasmids [[Kilisch et al. (2016)], [Yuan et al. (2003)]] in E. coli BL21DE3 cells. After induction with […] isopropyl-β-D-thiogalactoside, the protein was expressed for 4 h at room temperature. Cells were lysed in MBP-lysis buffer [50 mM Tris–HCl pH 7.5, 150 mM NaCl, 5 mM MgCl2, 1 mM PMSF, 1× cOmplete Protease Inhibitor EDTA-free (Roche)] using a French Pressure cell (FRENCH Press, Thermo, United States). Following centrifugation at 42,000 × g and 4°C for 30 min, the supernatant was transferred to a Maltose-agarose column (1.5 ml bed volume; New England Biolabs GmbH, Germany). Captured proteins were washed six times with 10 ml wash buffer (50 mM Tris–HCl pH 7.5, 150 mM NaCl, 5 mM MgCl2) prior to elution using wash buffer including 15 mM D-maltose. To remove the MBP tag, fusion proteins were incubated with Factor Xa (New England Biolabs GmbH, Germany), at a final concentration of 0.4 μg per 1 mg fusion protein for 24 h at RT following another 72 h at 4°C. Anion exchange chromatography was finally applied to separate residual MBP using a buffer gradient from 20 mM Tris pH 8 to 20 mM Tris pH 8 with 1 M NaCl. For this a RESOURCE Q column (GE Healthcare, United Kingdom) was utilized, employing an ÄKTApurifier (GE Healthcare, United Kingdom) or an NGC Quest Chromatography System (Bio-Rad Laboratories GmbH, Germany).
(§2) FP was used to determine binding affinities of different phosphorylated and non-phosphorylated peptides derived from LRRK2 sequences (Peps4LS GmbH, Germany) toward human 14-3-3 isoforms. Direct binding assays were performed and evaluated as previously described ([Muda et al., 2014]; [Manschwetus et al., 2019]). Briefly, both dilution series of 14-3-3 isoforms ranging from final concentrations of at least 5 μM down to picomolar concentrations and dilutions of the respective fluorescein-labeled peptide (final conc. 1 nM) were prepared in FP buffer (20 mM MOPS pH 7, 150 mM NaCl, 0.005% CHAPS). Subsequently, samples were mixed in 384-well microtiter plates as duplicates (BRAND plates, pureGrade, black, BRAND GmbH & Co. KG, Germany) in a 1:1 ratio and measured using a CLARIOstar plate reader (BMG LABTECH, Germany). Two protein preparations were utilized for at least two independent replications for all measurements while high affinity binding peptides were particularly measured with a minimum of three independent replications for statistical evaluation. Data was analyzed with GraphPad Prism 6.0 (GraphPad Software, San Diego, CA, United States) by plotting obtained FP signals (mPol) against the logarithmic 14-3-3 protein concentrations. Data points represent means ± standard error of mean (SEM) of duplicates. “Ctrl.” indicates the FP signal of fluorescein-labeled peptides without 14-3-3 protein. Sigmoidal dose-response fitting was performed to define KD-values.

[2] = biological target: T1, human 14-3-3 isoform σ (Homo sapiens, UniProt P31947); assay: Fluorescence polarization (FP) direct binding assay; conditions: fluorescein-labeled peptide 1 nM
T1 construct: MBP (cleaved yes); made in house; host or cells: E. coli BL21DE3
T1 sequence (P31947 1-248): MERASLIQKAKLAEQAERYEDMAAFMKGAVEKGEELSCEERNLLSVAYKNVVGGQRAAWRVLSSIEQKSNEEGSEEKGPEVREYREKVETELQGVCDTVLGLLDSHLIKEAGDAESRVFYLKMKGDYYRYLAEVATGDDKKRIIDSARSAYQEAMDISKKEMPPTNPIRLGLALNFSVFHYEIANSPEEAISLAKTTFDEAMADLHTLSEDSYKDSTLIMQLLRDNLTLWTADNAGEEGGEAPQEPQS
Method: as §1, §2

[3] = biological target: T2, human 14-3-3γ (Homo sapiens, UniProt P61981); assay: as above; conditions: dilution series of 14-3-3γ (at least 5 μM down to pM), fluorescein-labeled peptide 1 nM
T2 construct: MBP (cleaved yes); made in house; host or cells: E. coli BL21DE3
T2 sequence (P61981 1-247): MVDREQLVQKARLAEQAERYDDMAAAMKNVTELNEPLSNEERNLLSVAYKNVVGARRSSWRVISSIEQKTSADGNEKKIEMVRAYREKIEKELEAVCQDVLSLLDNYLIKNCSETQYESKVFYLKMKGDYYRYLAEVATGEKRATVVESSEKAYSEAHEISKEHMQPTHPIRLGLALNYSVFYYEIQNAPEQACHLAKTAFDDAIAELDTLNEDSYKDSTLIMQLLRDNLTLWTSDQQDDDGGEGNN
Method: as §1, §2

[4] = biological target: T3, human 14-3-3 isoform ϵ (Homo sapiens, UniProt P62258); assay: as above; conditions: fluorescein-labeled peptide 1 nM
T3 construct: MBP (cleaved yes); made in house; host or cells: E. coli BL21DE3
T3 sequence (P62258 1-255): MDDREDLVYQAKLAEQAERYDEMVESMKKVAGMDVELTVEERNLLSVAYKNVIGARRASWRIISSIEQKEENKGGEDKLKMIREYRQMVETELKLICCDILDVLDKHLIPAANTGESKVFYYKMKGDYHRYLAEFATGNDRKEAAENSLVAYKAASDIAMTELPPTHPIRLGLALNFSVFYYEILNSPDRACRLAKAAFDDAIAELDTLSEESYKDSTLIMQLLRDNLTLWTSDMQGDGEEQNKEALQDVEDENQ
Method: as §1, §2

[5] = biological target: 14-3-3γ (UniProt P61981); assay: fluorescence polarization direct binding
[6] = biological target: 14-3-3ε (UniProt P62258); assay: fluorescence polarization direct binding; conditions: reference: unphosphorylated S1443/S1444 peptide; sites S1444
[7] = biological target: T4, R1441C/pS1444 (R1441C (stands in the printed letters)); assay: fluorescence polarisation; direct binding; dilution series of 14-3-3 isoform (at least 5 μM down to picomolar) mixed with 1 nM fluorescein-labelled peptide; 20 mM MOPS pH 7, 150 mM NaCl, 0.005% CHAPS; 384-well plates; conditions: both partners purified
T4 construct: LRRK2-derived peptide of the Roc domain with the familial PD mutation R1441C, phosphorylated at S1444; source: synthetic peptide (Peps4LS GmbH)
T4 peptide: fluorescein-LFNIKACAS[pS]SPVILVGT

[8] = biological target: pS1444; assay: as above

What does the source list for “HIEVRKELAEKMRRpTSVE [pT2524, fluorescein-labeled phosphopeptide of the LRRK2 C-terminus comprising pT2524]”?
Binding to the human 14-3-3 isoforms, in words [1]: Micromolar affinities; also recorded: low micromolar range; Binding to 14-3-3 isoform σ, in words [2]: worst binding; Binding to 14-3-3γ, in words ([3]; FP buffer pH 7): micromolar affinities; Binding to 14-3-3γ, in words ([3]; FP buffer pH 7, listed as Phosphorylated T2524): clearly binds with micromolar affinity

For “LFNIKARApSpSSPVILVGT [pS1443/pS1444, fluorescein-labeled LRRK2 Roc domain peptide doubly phosphorylated at S1443 and S1444]”, which “Binding to the human 14-3-3 isoforms, in words” value [1] is on record?
The value was “micromolar affinities; also recorded: reduced nanomolar binding affinity to micromolar values”.

And the “Binding to 14-3-3 isoform ϵ, in words” value [4]?
The value was “not fitted due to an unusual binding behavior”.

What about the “Binding to 14-3-3γ, in words” value ([3]; FP buffer pH 7) of the same molecule?
The value was “reduced binding to 14-3-3γ compared to pS1444”.

For “LRRK2 (leucine-rich repeat kinase 2) (from UniProt Q5S007) pS910 peptide”, which “binding against the reference” value ([5]; reference: unphosphorylated S910 peptide, sites S910) is on record?
The value was “gained”.

Which KD ([5]; reference: pS1444 peptide, sites S1443) does the source give for “LRRK2 (leucine-rich repeat kinase 2) (from UniProt Q5S007) pS1443/pS1444 peptide” here?
The KD was “weaker; reference 106 ± 4”.

What about the “binding against the reference” value ([5]; reference: unphosphorylated S1443/S1444 peptide, sites S1443,S1444) of the same molecule?
Its value is “gained”.

With “LRRK2 (leucine-rich repeat kinase 2) (from UniProt Q5S007) pS1444 peptide” as the molecule, how does the KD [6] read?
The KD was “gained; reference no binding detected”.

B1: human 14-3-3 isoform η (recombinant, MBP tag removed) (natural protein, UniProt Q04917 1-246, looked up)
chain: MGDREQLLQRARLAEQAERYDDMASAMKAVTELNEPLSNEDRNLLSVAYKNVVGARRSSWRVISSIEQKTMADGNEKKLEKVKAYREKIEKELETVCNDVLSLLDKFLIKNCNDFQYESKVFYLKMKGDYYRYLAEVASGEKKNSVVEASEAAYKEAFEISKEQMQPTHPIRLGLALNFSVFYYEIQNAPEQACLLAKQAFDDAIAELDTLNEDSYKDSTLIMQLLRDNLTLWTSDQQDEEAGEGN
notes: 14-3-3 eta, human; Expressed from pMAL2CX plasmids; also called 14-3-3η; source: E. coli BL21DE3, purified (maltose-agarose, Factor Xa, anion exchange)
Which results are given for B1?
fold decrease in affinity against pS1444 [7]: ≥ 30 fold; Kd [8]: 85 nM

B2: human 14-3-3 isoform ζ (recombinant, MBP tag removed) (natural protein, UniProt P63104 1-245, looked up)
chain: MDKNELVQKAKLAEQAERYDDMAACMKSVTEQGAELSNEERNLLSVAYKNVVGARRSSWRVVSSIEQKTEGAEKKQQMAREYREKIETELRDICNDVLSLLEKFLIPNASQAESKVFYLKMKGDYYRYLAEVAAGDDKKGIVDQSQQAYQEAFEISKKEMQPTHPIRLGLALNFSVFYYEILNSPEKACSLAKTAFDEAIAELDTLSEESYKDSTLIMQLLRDNLTLWTSDTQGDEAEAGEGGEN
notes: 14-3-3 zeta, human; Expressed from pMAL2CX plasmids; also called 14-3-3ζ; source: E. coli BL21DE3, purified (maltose-agarose, Factor Xa, anion exchange)
With B2 as the molecule, how does the “fold decrease in affinity against pS1444” value [7] read?
The value was no less than 30 fold.

And the Kd [8]?
The Kd was 476 nM.

B3: human 14-3-3 isoform θ (recombinant, MBP tag removed) (natural protein, UniProt P27348 1-245, looked up)
chain: MEKTELIQKAKLAEQAERYDDMATCMKAVTEQGAELSNEERNLLSVAYKNVVGGRRSAWRVISSIEQKTDTSDKKLQLIKDYREKVESELRSICTTVLELLDKYLIANATNPESKVFYLKMKGDYFRYLAEVACGDDRKQTIDNSQGAYQEAFDISKKEMQPTHPIRLGLALNFSVFYYEILNNPELACTLAKTAFDEAIAELDTLNEDSYKDSTLIMQLLRDNLTLWTSDSAGEECDAAEGAEN
notes: 14-3-3 theta, human; Expressed from pMAL2CX plasmids; also called 14-3-3θ; source: E. coli BL21DE3, purified (maltose-agarose, Factor Xa, anion exchange)
Which results are given for B3?
fold decrease in affinity against pS1444 [7]: ≥ 30 fold; Kd [8]: 195 nM

B4: human 14-3-3 isoform σ (recombinant, MBP tag removed) (natural protein, UniProt P31947 1-248, looked up)
chain: MERASLIQKAKLAEQAERYEDMAAFMKGAVEKGEELSCEERNLLSVAYKNVVGGQRAAWRVLSSIEQKSNEEGSEEKGPEVREYREKVETELQGVCDTVLGLLDSHLIKEAGDAESRVFYLKMKGDYYRYLAEVATGDDKKRIIDSARSAYQEAMDISKKEMPPTNPIRLGLALNFSVFHYEIANSPEEAISLAKTTFDEAMADLHTLSEDSYKDSTLIMQLLRDNLTLWTADNAGEEGGEAPQEPQS
notes: 14-3-3 sigma, human; Expressed from pMAL2CX plasmids; also called 14-3-3σ; source: E. coli BL21DE3, purified (maltose-agarose, Factor Xa, anion exchange)
Which “fold decrease in affinity against pS1444” value [7] does the source give for B4 here?
Its value is no less than 30 fold.

What about the Kd [8] of the same molecule?
Its Kd is 802 nM.

— PMC7155755, “Binding of the Human 14-3-3 Isoforms to Distinct Sites in the Leucine-Rich Repeat Kinase 2” (Frontiers in Neuroscience, 2020)
